{
  "source": "paper PMC3135484",
  "about": "(Molecular Biology of the Cell, 2011)",
  "binders": {"B1": {"name": "His-tagged Vam3ΔN (145-264, lacking the Habc domain and the TMD) (domain or fragment)", "chain": "ESSYISIKVNEQSPLLHNEGQHQLQLQEEQEQQQQGLSQEELDFQTIIHQERSQQIGRIHTAVQEVNAIFHQLGSLVKEQGEQVTTIDENISHLHDNMQNANKQLTRADQHQRDRNKCGK"}},
  "target": "T1, GST-tagged Vam7 SNARE domain (190-316) (S. cerevisiae, UniProt P32912 190-316)",
  "T1 sequence": "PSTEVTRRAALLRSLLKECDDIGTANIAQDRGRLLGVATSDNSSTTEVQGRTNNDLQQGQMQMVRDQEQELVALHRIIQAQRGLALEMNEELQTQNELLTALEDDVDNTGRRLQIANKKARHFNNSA",
  "test": "pull-down",
  "data": [
    {"binder": "B1", "values": [
      {"measurement": "binding result", "value": "binds"}
    ]}
  ]
}
